From patent US20140087995A1 (published 2014) come the findings set out here.

Numbered stars: 1 amine (or outer) side, 2 acyl side, 3 side chain; on linkers, the order of the positions; unused ones are H or OH. Bridge positions count the residues as written; N and C are the ends. Side chains are listed from the residue outwards. Ends that are not written are not given here. * marks the point of attachment. C20 diacid = O=C(O)CCCCCCCCCCCCCCCCCCC(=O)*; γGlu = O=C(O)[C@H](CCC(=O)[*:2])N[*:1]; AEEA = NCCOCCOCC(=O)O

The labels stand for the following.
T1: human calcitonin receptor (human, UniProt P30988 25-474)
T1 sequence (looked up): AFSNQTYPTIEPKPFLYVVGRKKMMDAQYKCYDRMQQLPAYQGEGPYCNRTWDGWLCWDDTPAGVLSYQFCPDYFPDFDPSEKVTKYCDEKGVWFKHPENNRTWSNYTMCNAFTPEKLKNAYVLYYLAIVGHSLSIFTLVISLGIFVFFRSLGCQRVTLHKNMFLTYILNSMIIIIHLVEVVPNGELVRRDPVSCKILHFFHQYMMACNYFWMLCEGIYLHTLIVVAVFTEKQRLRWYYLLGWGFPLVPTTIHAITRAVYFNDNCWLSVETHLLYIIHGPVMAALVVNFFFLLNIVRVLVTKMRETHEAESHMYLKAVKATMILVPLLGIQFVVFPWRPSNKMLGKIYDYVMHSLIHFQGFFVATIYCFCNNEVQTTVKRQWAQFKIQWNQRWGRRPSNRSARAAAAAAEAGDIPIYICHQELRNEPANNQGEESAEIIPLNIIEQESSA

B1: N^ε1-[2-[2-[2-[[(4S)-4-carboxy-4-(19-carboxynonadecanoylamino)butanoyl]amino]ethoxy]ethoxy]acetyl]-[Ala14,Arg17,Pro21,Pro27,Pro31]-h-amylin (peptide)
peptide: K([AEEA-γGlu-C20 diacid])CNTATCATQRLAAFLRHSSPNFGAIPSSTPVGSNTY-NH2
modifications: disulfide 2-7; N-terminus assumed
SMILES: CC[C@H](C)[C@H](NC(=O)[C@H](C)NC(=O)CNC(=O)[C@H](Cc1ccccc1)NC(=O)[C@H](CC(N)=O)NC(=O)[C@@H]1CCCN1C(=O)[C@H](CO)NC(=O)[C@H](CO)NC(=O)[C@H](Cc1c[nH]cn1)NC(=O)[C@H](CCCNC(=N)N)NC(=O)[C@H](CC(C)C)NC(=O)[C@H](Cc1ccccc1)NC(=O)[C@H](C)NC(=O)[C@H](C)NC(=O)[C@H](CC(C)C)NC(=O)[C@H](CCCNC(=N)N)NC(=O)[C@H](CCC(N)=O)NC(=O)[C@@H](NC(=O)[C@H](C)NC(=O)[C@@H]1CSSC[C@H](NC(=O)[C@@H](N)CCCCNC(=O)COCCOCCNC(=O)CC[C@H](NC(=O)CCCCCCCCCCCCCCCCCCC(=O)O)C(=O)O)C(=O)N[C@@H](CC(N)=O)C(=O)N[C@@H]([C@@H](C)O)C(=O)N[C@@H](C)C(=O)N[C@@H]([C@@H](C)O)C(=O)N1)[C@@H](C)O)C(=O)N1CCC[C@H]1C(=O)N[C@@H](CO)C(=O)N[C@@H](CO)C(=O)N[C@H](C(=O)N1CCC[C@H]1C(=O)N[C@H](C(=O)NCC(=O)N[C@@H](CO)C(=O)N[C@@H](CC(N)=O)C(=O)N[C@H](C(=O)N[C@@H](Cc1ccc(O)cc1)C(N)=O)[C@@H](C)O)C(C)C)[C@@H](C)O
notes: analogue of human amylin; also called compound 72
B2: N^ε1-[2-[2-[2-[[(4S)-4-carboxy-4-(19-carboxynonadecanoylamino)butanoyl]amino]ethoxy]ethoxy]acetyl]-[Arg17,Pro21,Pro27,Pro31]-h-amylin (peptide)
peptide: K([AEEA-γGlu-C20 diacid])CNTATCATQRLANFLRHSSPNFGAIPSSTPVGSNTY-NH2
modifications: disulfide 2-7; N-terminus assumed
SMILES: CC[C@H](C)[C@H](NC(=O)[C@H](C)NC(=O)CNC(=O)[C@H](Cc1ccccc1)NC(=O)[C@H](CC(N)=O)NC(=O)[C@@H]1CCCN1C(=O)[C@H](CO)NC(=O)[C@H](CO)NC(=O)[C@H](Cc1c[nH]cn1)NC(=O)[C@H](CCCNC(=N)N)NC(=O)[C@H](CC(C)C)NC(=O)[C@H](Cc1ccccc1)NC(=O)[C@H](CC(N)=O)NC(=O)[C@H](C)NC(=O)[C@H](CC(C)C)NC(=O)[C@H](CCCNC(=N)N)NC(=O)[C@H](CCC(N)=O)NC(=O)[C@@H](NC(=O)[C@H](C)NC(=O)[C@@H]1CSSC[C@H](NC(=O)[C@@H](N)CCCCNC(=O)COCCOCCNC(=O)CC[C@H](NC(=O)CCCCCCCCCCCCCCCCCCC(=O)O)C(=O)O)C(=O)N[C@@H](CC(N)=O)C(=O)N[C@@H]([C@@H](C)O)C(=O)N[C@@H](C)C(=O)N[C@@H]([C@@H](C)O)C(=O)N1)[C@@H](C)O)C(=O)N1CCC[C@H]1C(=O)N[C@@H](CO)C(=O)N[C@@H](CO)C(=O)N[C@H](C(=O)N1CCC[C@H]1C(=O)N[C@H](C(=O)NCC(=O)N[C@@H](CO)C(=O)N[C@@H](CC(N)=O)C(=O)N[C@H](C(=O)N[C@@H](Cc1ccc(O)cc1)C(N)=O)[C@@H](C)O)C(C)C)[C@@H](C)O
notes: analogue of human amylin; also called compound 49
B3: N^ε1-[2-[2-[2-[[(4S)-4-carboxy-4-(19-carboxynonadecanoylamino)butanoyl]amino]ethoxy]ethoxy]acetyl]-[Arg17,Pro21,Pro27,Pro31,His35]-h-amylin (peptide)
peptide: K([AEEA-γGlu-C20 diacid])CNTATCATQRLANFLRHSSPNFGAIPSSTPVGSHTY-NH2
modifications: disulfide 2-7; N-terminus assumed
SMILES: CC[C@H](C)[C@H](NC(=O)[C@H](C)NC(=O)CNC(=O)[C@H](Cc1ccccc1)NC(=O)[C@H](CC(N)=O)NC(=O)[C@@H]1CCCN1C(=O)[C@H](CO)NC(=O)[C@H](CO)NC(=O)[C@H](Cc1c[nH]cn1)NC(=O)[C@H](CCCNC(=N)N)NC(=O)[C@H](CC(C)C)NC(=O)[C@H](Cc1ccccc1)NC(=O)[C@H](CC(N)=O)NC(=O)[C@H](C)NC(=O)[C@H](CC(C)C)NC(=O)[C@H](CCCNC(=N)N)NC(=O)[C@H](CCC(N)=O)NC(=O)[C@@H](NC(=O)[C@H](C)NC(=O)[C@@H]1CSSC[C@H](NC(=O)[C@@H](N)CCCCNC(=O)COCCOCCNC(=O)CC[C@H](NC(=O)CCCCCCCCCCCCCCCCCCC(=O)O)C(=O)O)C(=O)N[C@@H](CC(N)=O)C(=O)N[C@@H]([C@@H](C)O)C(=O)N[C@@H](C)C(=O)N[C@@H]([C@@H](C)O)C(=O)N1)[C@@H](C)O)C(=O)N1CCC[C@H]1C(=O)N[C@@H](CO)C(=O)N[C@@H](CO)C(=O)N[C@H](C(=O)N1CCC[C@H]1C(=O)N[C@H](C(=O)NCC(=O)N[C@@H](CO)C(=O)N[C@@H](Cc1c[nH]cn1)C(=O)N[C@H](C(=O)N[C@@H](Cc1ccc(O)cc1)C(N)=O)[C@@H](C)O)C(C)C)[C@@H](C)O
notes: analogue of human amylin; also called compound 57
B4: N^ε1-[2-[2-[2-[[(4S)-4-carboxy-4-(19-carboxynonadecanoylamino)butanoyl]amino]ethoxy]ethoxy]acetyl]-[Arg14,Arg17,Pro21,Pro27,Pro31]-h-amylin (peptide)
peptide: K([AEEA-γGlu-C20 diacid])CNTATCATQRLARFLRHSSPNFGAIPSSTPVGSNTY-NH2
modifications: disulfide 2-7; N-terminus assumed
SMILES: CC[C@H](C)[C@H](NC(=O)[C@H](C)NC(=O)CNC(=O)[C@H](Cc1ccccc1)NC(=O)[C@H](CC(N)=O)NC(=O)[C@@H]1CCCN1C(=O)[C@H](CO)NC(=O)[C@H](CO)NC(=O)[C@H](Cc1c[nH]cn1)NC(=O)[C@H](CCCNC(=N)N)NC(=O)[C@H](CC(C)C)NC(=O)[C@H](Cc1ccccc1)NC(=O)[C@H](CCCNC(=N)N)NC(=O)[C@H](C)NC(=O)[C@H](CC(C)C)NC(=O)[C@H](CCCNC(=N)N)NC(=O)[C@H](CCC(N)=O)NC(=O)[C@@H](NC(=O)[C@H](C)NC(=O)[C@@H]1CSSC[C@H](NC(=O)[C@@H](N)CCCCNC(=O)COCCOCCNC(=O)CC[C@H](NC(=O)CCCCCCCCCCCCCCCCCCC(=O)O)C(=O)O)C(=O)N[C@@H](CC(N)=O)C(=O)N[C@@H]([C@@H](C)O)C(=O)N[C@@H](C)C(=O)N[C@@H]([C@@H](C)O)C(=O)N1)[C@@H](C)O)C(=O)N1CCC[C@H]1C(=O)N[C@@H](CO)C(=O)N[C@@H](CO)C(=O)N[C@H](C(=O)N1CCC[C@H]1C(=O)N[C@H](C(=O)NCC(=O)N[C@@H](CO)C(=O)N[C@@H](CC(N)=O)C(=O)N[C@H](C(=O)N[C@@H](Cc1ccc(O)cc1)C(N)=O)[C@@H](C)O)C(C)C)[C@@H](C)O
notes: analogue of human amylin; also called compound 64
B5: N^ε1-[2-[2-[2-[[(4S)-4-carboxy-4-(19-carboxynonadecanoylamino)butanoyl]amino]ethoxy]ethoxy]acetyl]-[Arg17,Pro21,Pro27,Glu35]-h-amylin (peptide)
peptide: K([AEEA-γGlu-C20 diacid])CNTATCATQRLANFLRHSSPNFGAIPSSTNVGSETY-NH2
modifications: disulfide 2-7; N-terminus assumed
SMILES: CC[C@H](C)[C@H](NC(=O)[C@H](C)NC(=O)CNC(=O)[C@H](Cc1ccccc1)NC(=O)[C@H](CC(N)=O)NC(=O)[C@@H]1CCCN1C(=O)[C@H](CO)NC(=O)[C@H](CO)NC(=O)[C@H](Cc1c[nH]cn1)NC(=O)[C@H](CCCNC(=N)N)NC(=O)[C@H](CC(C)C)NC(=O)[C@H](Cc1ccccc1)NC(=O)[C@H](CC(N)=O)NC(=O)[C@H](C)NC(=O)[C@H](CC(C)C)NC(=O)[C@H](CCCNC(=N)N)NC(=O)[C@H](CCC(N)=O)NC(=O)[C@@H](NC(=O)[C@H](C)NC(=O)[C@@H]1CSSC[C@H](NC(=O)[C@@H](N)CCCCNC(=O)COCCOCCNC(=O)CC[C@H](NC(=O)CCCCCCCCCCCCCCCCCCC(=O)O)C(=O)O)C(=O)N[C@@H](CC(N)=O)C(=O)N[C@@H]([C@@H](C)O)C(=O)N[C@@H](C)C(=O)N[C@@H]([C@@H](C)O)C(=O)N1)[C@@H](C)O)C(=O)N1CCC[C@H]1C(=O)N[C@@H](CO)C(=O)N[C@@H](CO)C(=O)N[C@H](C(=O)N[C@@H](CC(N)=O)C(=O)N[C@H](C(=O)NCC(=O)N[C@@H](CO)C(=O)N[C@@H](CCC(=O)O)C(=O)N[C@H](C(=O)N[C@@H](Cc1ccc(O)cc1)C(N)=O)[C@@H](C)O)C(C)C)[C@@H](C)O
notes: analogue of human amylin; also called compound 26
B6: N^ε1-[2-[2-[2-[[(4S)-4-carboxy-4-(19-carboxynonadecanoylamino)butanoyl]amino]ethoxy]ethoxy]acetyl]-[Arg17,Pro21,Pro27,Pro28,Pro34]-h-amylin (peptide)
peptide: K([AEEA-γGlu-C20 diacid])CNTATCATQRLANFLRHSSPNFGAIPPSTNVGPNTY-NH2
modifications: disulfide 2-7; N-terminus assumed
SMILES: CC[C@H](C)[C@H](NC(=O)[C@H](C)NC(=O)CNC(=O)[C@H](Cc1ccccc1)NC(=O)[C@H](CC(N)=O)NC(=O)[C@@H]1CCCN1C(=O)[C@H](CO)NC(=O)[C@H](CO)NC(=O)[C@H](Cc1c[nH]cn1)NC(=O)[C@H](CCCNC(=N)N)NC(=O)[C@H](CC(C)C)NC(=O)[C@H](Cc1ccccc1)NC(=O)[C@H](CC(N)=O)NC(=O)[C@H](C)NC(=O)[C@H](CC(C)C)NC(=O)[C@H](CCCNC(=N)N)NC(=O)[C@H](CCC(N)=O)NC(=O)[C@@H](NC(=O)[C@H](C)NC(=O)[C@@H]1CSSC[C@H](NC(=O)[C@@H](N)CCCCNC(=O)COCCOCCNC(=O)CC[C@H](NC(=O)CCCCCCCCCCCCCCCCCCC(=O)O)C(=O)O)C(=O)N[C@@H](CC(N)=O)C(=O)N[C@@H]([C@@H](C)O)C(=O)N[C@@H](C)C(=O)N[C@@H]([C@@H](C)O)C(=O)N1)[C@@H](C)O)C(=O)N1CCC[C@H]1C(=O)N1CCC[C@H]1C(=O)N[C@@H](CO)C(=O)N[C@H](C(=O)N[C@@H](CC(N)=O)C(=O)N[C@H](C(=O)NCC(=O)N1CCC[C@H]1C(=O)N[C@@H](CC(N)=O)C(=O)N[C@H](C(=O)N[C@@H](Cc1ccc(O)cc1)C(N)=O)[C@@H](C)O)C(C)C)[C@@H](C)O
notes: analogue of human amylin; also called compound 55

This test deals with T1, human calcitonin receptor. Kind of test: cell-based or functional assay.
Turning to B1, the “hCTR funct. EC50” value is 4.76 nM.
With B2, the “hCTR funct. EC50” value was found to be 2.39 nM.
As for B3, the “hCTR funct. EC50” value was 3.12 nM.
Regarding B4, the “hCTR funct. EC50” value amounted to 22.9 nM.
As for B5, the “hCTR funct. EC50” value stood at 6.34 nM.
Regarding B6, the “hCTR funct. EC50” value is 0.731 nM.
